Experimental data published in patent US20250215108A1.
Several values for one entry are separate records, joined by “and”; a condition that tells them apart may be missing. Equal values may be shown once.

Key:
[1] = target: SIRPγ on peripheral human CD3+ T cells (human) (UniProt Q9P1W8); assay: flow cytometry on peripheral human CD3+ T cells, 10 µg/ml; Exp 1 HV1
[2] = target: SIRPγ on peripheral human CD3+ T cells (human) (UniProt Q9P1W8); assay: flow cytometry on peripheral human CD3+ T cells, 10 µg/ml; Exp 1 HV2
[3] = target: recombinant hSIRPa (Sino Biologicals, reference 10975-H08H) (human) (UniProt P78324); assay: ELISA (ED50), immobilized hSIRPa, anti-mouse Fc detection
Sequence of recombinant hSIRPa (Sino Biologicals, reference 10975-H08H) (human) (P78324 other isoform, or with tags, fused parts or gaps H08H H08H limits assumed): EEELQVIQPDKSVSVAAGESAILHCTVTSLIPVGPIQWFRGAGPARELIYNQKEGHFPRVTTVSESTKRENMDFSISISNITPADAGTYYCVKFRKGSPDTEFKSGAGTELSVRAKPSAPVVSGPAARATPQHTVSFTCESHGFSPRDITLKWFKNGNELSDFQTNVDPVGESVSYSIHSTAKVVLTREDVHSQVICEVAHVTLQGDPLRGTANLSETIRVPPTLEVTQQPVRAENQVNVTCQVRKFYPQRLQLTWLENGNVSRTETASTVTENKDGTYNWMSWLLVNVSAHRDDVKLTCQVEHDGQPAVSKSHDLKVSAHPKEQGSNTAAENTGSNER

[4] = target: recombinant hSIRPa-His (Sino Biologicals, reference 11612-H08H) (human) (UniProt P78324); assay: SPR (Biacore 3000); SIRPa-His immobilised on a CM5 chip (500 RU), antibody injected; 3 min association, 10 min dissociation
Sequence of recombinant hSIRPa-His (Sino Biologicals, reference 11612-H08H) (human) (P78324 31-370, form in doubt): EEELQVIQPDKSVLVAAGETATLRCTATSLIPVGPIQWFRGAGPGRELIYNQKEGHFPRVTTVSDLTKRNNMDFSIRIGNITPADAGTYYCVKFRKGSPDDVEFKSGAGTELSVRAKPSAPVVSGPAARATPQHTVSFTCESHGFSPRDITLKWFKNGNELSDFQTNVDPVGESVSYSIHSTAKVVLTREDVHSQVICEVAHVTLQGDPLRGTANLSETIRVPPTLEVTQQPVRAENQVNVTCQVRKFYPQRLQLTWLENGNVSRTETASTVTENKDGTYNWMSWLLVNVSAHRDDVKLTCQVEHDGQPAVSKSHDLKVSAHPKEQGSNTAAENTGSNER

Sequence of SIRPγ on peripheral human CD3+ T cells (human) (Q9P1W8 29-387): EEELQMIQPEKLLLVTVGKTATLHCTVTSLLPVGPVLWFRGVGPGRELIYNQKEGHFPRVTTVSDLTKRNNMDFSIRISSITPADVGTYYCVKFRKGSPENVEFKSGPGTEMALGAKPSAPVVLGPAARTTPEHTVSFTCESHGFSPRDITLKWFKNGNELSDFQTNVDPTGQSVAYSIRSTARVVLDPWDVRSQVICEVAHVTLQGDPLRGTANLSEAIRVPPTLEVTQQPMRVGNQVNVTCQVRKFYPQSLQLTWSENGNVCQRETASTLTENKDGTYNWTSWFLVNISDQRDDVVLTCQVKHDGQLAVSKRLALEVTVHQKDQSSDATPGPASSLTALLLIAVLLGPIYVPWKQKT

Row | % of positive T-cells [1] | % of positive T-cells [2] | EC50 [3] | Kd [4] | koff [4] | kon [4] | Substance
1 | 91.4% | 98.4% |  |  |  |  | LSB2.20 (specific anti-SIRPγ antibody)
2 | 3.72% | 7.69% | 0.16 nM and 0.024 µg/mL | 38.7 nM | 0.000949 s⁻¹ | 24500 M⁻¹ s⁻¹ | SE5A5 (BioLegend BLE323802), antibody recognizing SIRP a/B
3 |  |  |  | 1670 nM | 0.01 s⁻¹ | 5980 M⁻¹ s⁻¹ | anti-SIRPa antibody SE7C2 (Santa Cruz sc-23863)
4 | 0.87% | 0.25% |  |  |  |  | anti-SIRPb antibody B4B6
